Measurements: US20180155451A1 (published 2018)
Numbering of substitutions follows the chain as printed. In names and notes the source's numbering stands. Read-outs that look alike come from different tables or passages of the source.

Legend:
[1] = target: T1, FcgRIIa type H extracellular domain with C-terminal His tag (human, UniProt P12318 34-217); test: SPR (Biacore), antibody captured on chip, soluble FcgR as analyte; too weak for kinetics, KD from steady-state 1:1 equation
T1 construct: extracellular domain; also called FcgRIIaH; FcgRIIa H; not shown: His tag at the C terminus
T1 sequence (looked up): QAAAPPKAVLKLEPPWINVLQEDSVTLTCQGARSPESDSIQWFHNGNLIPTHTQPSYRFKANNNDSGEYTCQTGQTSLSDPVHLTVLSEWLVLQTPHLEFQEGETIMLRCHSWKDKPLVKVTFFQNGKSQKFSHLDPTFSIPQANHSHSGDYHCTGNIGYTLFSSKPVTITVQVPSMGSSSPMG
Method: (§1) KD can be calculated by substituting the values of Rmax, RI, and C into this equation. The values of RI and C can be determined from the sensorgram of the measurement results and measurement conditions. Rmax was calculated according to the following method.

[2] = target: T2, FcgRIIIa type V extracellular domain with C-terminal His tag (human, UniProt P08637 17-208); test: as above
T2 construct: extracellular domain; also called FcgRIIIaV; FcgRIIIa V; not shown: His tag at the C terminus
Method: as §1

[3] = target: T3, FcgRIIa type R extracellular domain with C-terminal His tag (human, UniProt P12318 34-217); test: SPR (Biacore), antibody captured on chip, soluble FcgR as analyte, kinetic 1:1 fit
T3 construct: extracellular domain; also called FcgRIIaR; FcgRIIa R; not shown: His tag at the C terminus
T3 sequence (looked up): T1 sequence (looked up) with H134R

[4] = target: T3, FcgRIIa type R extracellular domain …; test: as above; remark: listed apart in the source
Method: The variants were assessed for the binding activity to FcgR Ia, FcgR IIaR, FcgR IIaH, and FcgRIIb according to the method described in Reference Example 8.
(§2) Analysis of interaction between obj ective antibody and the FcγR was carried out using Biacore T100 (GE Healthcare), Biacore T200, Biacore A100, and Biacore 4000. HBS-EP+ (GE Healthcare) was used as the running buffer, and the measurement temperature was set to 25° C. Chips produced by immobilizing the antigen peptide by the amine coupling method to a Series S sensor Chip CM5 (GE Healthcare), chips produced by allowing preliminarily biotinylated antigen peptides to interact with and immobilize onto a Series S Sensor Chip SA (certified) (GE Healthcare), chips produced by immobilizing Protein L (ACTIGEN, BioVision) to Series S Sencor Chip CM5 (GE Healthcare), or chips produced by immobilizing Protein A/G (Thermo Scientific) to Series S Sencor Chip CM5 (GE Healthcare) were used. Antibodies of interest were captured onto these chips, and allowed to interact to each FcγR diluted with running buffer. To regenerate and repeatedly use the chip, the antibodies captured onto the chip were washed off by reacting 10 mM glycine-HCl, pH 1.5.

[5] = target: T1, FcgRIIa type H extracellular domain …; test: SPR (Biacore), antibody captured on chip, soluble FcgR as analyte; too weak for kinetics, KD from steady-state 1:1 equation; remark: listed apart in the source
Method: as §1

[6] = target: T2, FcgRIIIa type V extracellular domain …; test: as above; remark: listed apart in the source
Method: as §1

[7] = target: T4, FcγRIIb (human, UniProt P31994 43-217); test: SPR (Biacore), relative binding; compared with GpH7-A5/GpH7-B12/GpL16-k0
T4 construct: extracellular domain; for crystallography expressed with Kifunesine and trimmed with Endo F1; also called FcgRIIb; FcgR2b; not shown: His tag attached to the C terminus
T4 sequence (looked up): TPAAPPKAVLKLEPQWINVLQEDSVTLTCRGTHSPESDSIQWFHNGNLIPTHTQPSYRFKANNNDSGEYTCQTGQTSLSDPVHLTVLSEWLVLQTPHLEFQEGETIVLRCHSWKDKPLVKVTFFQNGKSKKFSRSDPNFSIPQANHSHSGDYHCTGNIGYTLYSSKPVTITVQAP
Method: Analysis of interaction between objective antibody and the FcγR was carried out using Biacore T100 (GE Healthcare). HBS-EP+ (GE Healthcare) was used as the running buffer, and the measurement temperature was set to 25° C. Chips produced by immobilizing the antigen peptide by the amine coupling method to a Series S Sencor Chip CM5 (GE Healthcare), or alternatively, chips produced by allowing preliminarily biotinylated antigen peptides to interact with and immobilize onto a Series S Sensor Chip SA (certified) (GE Healthcare) were used. Antibodies of interest were captured onto an antigen peptide-immobilized chip, and allowed to interact to each FcγR diluted with running buffer. To regenerate and repeatedly use the chip, the antibodies captured on the chip were washed off by reacting 10 mM glycine-HCl, pH 1.5.

[8] = target: T5, FcgRIIaR (human, UniProt P12318 34-217); test: SPR (Biacore), antibody captured on chip, FcgR as analyte
T5 construct: extracellular domain; R131 allotype; also called FcγRIIa R; FcgRIIa type R; not shown: C-terminal His tag
T5 sequence (looked up): T1 sequence (looked up) with H134R
Method: (§3) The variants described above were assessed for their binding to FcgR according to the method described in Reference Example 8.
as §2

[9] = target: T6, FcgRIIIaV (human, UniProt P08637 17-208); test: as above
T6 construct: extracellular domain; V158 allotype; also called FcγRIIIa V; not shown: C-terminal His tag
Method: as §3, §2

[10] = target: T7, FcgRIIaH (human, UniProt P12318 34-217); test: as above
T7 construct: extracellular domain; H131 allotype; also called FcγRIIa H; FcgRIIa type H; not shown: C-terminal His tag
T7 sequence (looked up): T1 sequence (looked up)
Method: as §3, §2

[11] = target: T8, FcgRIIb (human, UniProt P31994 43-217); test: as above
T8 construct: extracellular domain; also called FcγRIIb; CD32B; not shown: C-terminal His tag
T8 sequence (looked up): T4 sequence (looked up)
Method: as §3, §2

[12] = target: T9, FcgRIIIaF (human, UniProt P08637 17-208); test: as above
T9 construct: extracellular domain; F158 allotype; also called FcγRIIIa F; not shown: C-terminal His tag
Method: as §3, §2

[13] = target: T5, FcgRIIaR; test: SPR (Biacore); KD of H240-Kn120/H240-Hl068/L73-k0 divided by KD of the sample
Method: as §3, §2

[14] = target: T6, FcgRIIIaV; test: as above
Method: as §3, §2

[15] = target: T7, FcgRIIaH; test: as above
Method: as §3, §2

[16] = target: T8, FcgRIIb; test: as above
Method: as §3, §2

[17] = target: T9, FcgRIIIaF; test: as above
Method: as §3, §2

[18] = target: T10, FcgRIa (human, UniProt P12314 16-292); test: SPR (Biacore 4000), antibody captured on chip, FcgR as analyte; kd below the limit 5e-5 /s
T10 construct: extracellular domain; also called FcγRIa; FcγRI; not shown: C-terminal His tag
Method: as §3, §2

T9 sequence (P08637 17-208): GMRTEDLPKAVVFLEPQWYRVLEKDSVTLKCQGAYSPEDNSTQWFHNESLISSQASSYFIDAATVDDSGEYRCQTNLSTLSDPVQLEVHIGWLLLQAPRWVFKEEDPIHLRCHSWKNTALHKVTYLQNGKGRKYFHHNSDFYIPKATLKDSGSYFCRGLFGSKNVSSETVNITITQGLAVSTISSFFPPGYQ
T6 sequence (P08637 17-208 F176V limits assumed): as the sequence (P08637 17-208) above, with F160V counted along it
T2 sequence (P08637 17-208 F176V): as the sequence (P08637 17-208) above, with F160V counted along it
T10 sequence (P12314 16-292): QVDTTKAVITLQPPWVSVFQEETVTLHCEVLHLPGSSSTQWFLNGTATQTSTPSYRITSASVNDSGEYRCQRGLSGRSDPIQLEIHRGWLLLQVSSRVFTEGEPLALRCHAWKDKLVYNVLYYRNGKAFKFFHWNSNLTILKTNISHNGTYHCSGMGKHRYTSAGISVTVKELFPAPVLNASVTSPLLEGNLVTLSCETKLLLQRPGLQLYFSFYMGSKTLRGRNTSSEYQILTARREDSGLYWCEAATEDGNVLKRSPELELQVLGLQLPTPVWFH

B1: IL6R-BP208/IL6R-L (antibody, human IgG1, kappa)
heavy: QVQLQESGPGLVKPSETLSLTCAVSGHSISHDHAWSWVRQPPGEGLEWIGFISYSGITNYNPSLQGRVTISRDNSKNTLYLQMNSLRAEDTAVYYCARSLARTTAMDYWGEGTLVTVSSASTKGPSVFPLAPSSKSTSGGTAALGCLVKDYFPEPVTVSWNSGALTSGVHTFPAVLQSSGLYSLSSVVTVPSSSLGTQTYICNVNHKPSNTKVDKKVEPKSCDKTHTCPPCPAPDLLGDDSVFLFPPKPKDTLMISRTPEVTCVVVDVSDEDGEVKFNWYVDGVEVHNAKTKPREEQYNSTYRVVSVLTVLHQDWLNGKEYKCKVSNKALPRPIEKTISKAKGQPREPQVYTLPPSRDELTKNQVSLTCLVKGFYPSDIAVEWESNGQPENNYKTTPPVLDSDGSFFLYSKLTVDKSRWQQGNVFSCSVMHEALHNHYTQESLSLSP
light: not shown
notes: Homodimer; IL6R-BP208 is IL6R-B3 with E233D, G237D, P238D, H268D, P271G and A330R
Work on B1 yielded a Kd [1] of 8.3 µM, a Kd [2] of 53 µM and a Kd [3] of 850 nM. It also gave a Kd [4] of 850 nM, a Kd [5] of 8.3 µM and a Kd [6] of 53 µM.

B2: GpH7-A5/GpH7-B41/GpL16-k0 (antibody, human IgG1, kappa)
heavy 1: not shown
heavy 2: QVQLVQSGAEVKKPGASVTVSCKASGYTFTDYEMHWIRQPPGEGLEWIGAIDPKTGDTAYSESFQDRVTLTADKSTSTAYMELSSLTSEDTAVYYCTRFYSYTYWGQGTLVTVSSASTKGPSVFPLAPSSKSTSGGTAALGCLVKDYFPEPVTVSWNSGALTSGVHTFPAVLQSSGLYSLSSVVTVPSSSLGTQTYICNVNHKPSNTKVDKKVEPKSCDKTHTCPPCPAPEDLGGPSVFLFPPKPKDTLMISRTPEVTCVVVDVSHEDPEVKFNWYVDGVEVHNAKTKPREEQYNSTYRVVSVLTVLHQDWLNGKEYKCKVSNKALRAPIEKTISKAKGQPREPQVYTLPPSRDELTKNQVSLTCLVKGFYPSDIAVEWESNGQPENNYKTTPPVLDSDGSFFLYSKLTVDKSRWQQGNVFSCSVMHEALHNHYTQESLSLSP
light: DIVMTQSPLSLPVTPGEPASISCQASESLVHSNRNTYLHWYLQKPGQSPQLLIYKVSNRFSGVPDRFSGSGSGTDFTLKISRVEAEDVGVYYCSQNTHVPPTFGQGTKVEIERTVAAPSVFIFPPSDEQLKSGTASVVCLLNNFYPREAKVQWKVDNALQSGNSQESVTEQDSKDSTYSLSSTLTLSKADYEKHKVYACEVTHQGLSSPVTKSFNRGEC
notes: L234D and P329R in the same H chain
B2: binds [7].

B3: H240-Kn120/H240-Hl073/L73-k0 (antibody, human IgG1, kappa)
heavy 1: QDQLVQSGAEVKKPGASVKVSCKASGFNIKDTYIQWVRQAPGQGLEWMGRIDPLRKQTKYREKFEGRVTITADTSTNTAYMELSSLRSEDTAVYYCVRSGREFDYWGQGTLVTVSSASTKGPSVFPLAPSSKSTSGGTAALGCLVKDYFPEPVTVSWNSGALTSGVHTFPAVLQSSGLYSLSSVVTVPSSSLGTQTYICNVNHKPSNTKVDKKVEPKSCDKTHTCPPCPAPEYYWGPMVFLFPPKPKDTLMISRTPEVTCVVVDVSDEDPEVKFNWYVDGVEVHNAKTKPREEQYNATYRVVSVLTVLHQDWLNGKEYKCKVSNKDLPAPIEKTISKAKGQPREPQVCTLPPSRDELTKNQVSLWCLVKGFYPSDIAVEWESNGQPENNYKTTPPVLDSDGSFFLYSKLTVDKSRWQQGNVFSCSVMHEALHNHYTQKSLSLSP
heavy 2: QDQLVQSGAEVKKPGASVKVSCKASGFNIKDTYIQWVRQAPGQGLEWMGRIDPLRKQTKYREKFEGRVTITADTSTNTAYMELSSLRSEDTAVYYCVRSGREFDYWGQGTLVTVSSASTKGPSVFPLAPSSKSTSGGTAALGCLVKDYFPEPVTVSWNSGALTSGVHTFPAVLQSSGLYSLSSVVTVPSSSLGTQTYICNVNHKPSNTKVDKKVEPKSCDKTHTCPPCPAPELLSGPSVFLFPPKPKDTLMISRTPEVTCVVVDVSHEEPEVKFNWYVDGVEVHNAKTKPREEQYNSTYRVVSVLTVLHQDWLNGKEYKCKVSNDALPKPIEETISKAKGQPREPQVYTLPPSRCELTKNQVSLSCAVKGFYPSDIAVEWESNGQPENNYKTTPPVLDSDGSFFLVSKLTVDKSRWQQGNVFSCSVMHEALHNHYTQKSLSLSP
light: DIQMTQSPSSLSASVGDRVTITCRASQDIHKYIAWYQQKPGQAPRLLIQYTSTLQPGVPSRFSGSGSGTDYTFTISSLQPEDIATYYCLQYEQLRTFGGGTKVEIKRTVAAPSVFIFPPSDEQLKSGTASVVCLLNNFYPREAKVQWKVDNALQSGNSQESVTEQDSKDSTYSLSSTLTLSKADYEKHKVYACEVTHQGLSSPVTKSFNRGEC
notes: Heterodimerized anti-epiregulin antibody; G236S in the Hl068 chain; also called H240-Kn120/H240-HI073/L73-k0
For B3, the Kd [8] was 15 nM, the Kd [9] was 1.8 nM and the Kd [10] was 21 nM. For the same binder, the Kd [11] was 210 nM, the Kd [12] was 8.2 nM and the “Relative KD” value [13] was 1.3. For the same binder, the “Relative KD” value [14] was 0.2, the “Relative KD” value [15] was 2 and the “Relative KD” value [16] was 0.7. The “Relative KD” value [17] was 0.3 and the Kd [18] was under 0.028 nM.
